One assay concerns the target T1, CEA variant (CEA-v) (human, UniProt P06731 35-687).
T1 construct: Splice-variant construct made by overlap PCR of CEA AA 1-78 and AA 398-687, C-terminal 6xHis; also called sCEA-v
T1 sequence: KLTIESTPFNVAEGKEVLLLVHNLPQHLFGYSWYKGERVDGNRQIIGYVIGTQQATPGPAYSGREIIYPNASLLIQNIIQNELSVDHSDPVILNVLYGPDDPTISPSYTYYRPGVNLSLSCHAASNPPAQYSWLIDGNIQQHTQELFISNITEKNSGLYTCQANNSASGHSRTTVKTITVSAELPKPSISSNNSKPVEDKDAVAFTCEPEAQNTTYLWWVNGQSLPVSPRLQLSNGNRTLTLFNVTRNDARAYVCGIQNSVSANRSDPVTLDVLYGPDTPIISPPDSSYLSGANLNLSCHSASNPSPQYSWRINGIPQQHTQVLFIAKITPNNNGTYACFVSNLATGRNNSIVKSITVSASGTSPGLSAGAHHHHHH
Nature of the assay: SPR (BIAcore T-200); antibody captured by anti-murine IgG, antigen flowed. Here is the method: (§1) Briefly, anti-murine IgG antibody was immobilized on an activated CM5 biosensor chip (Cat. No. BR100530, GE Life Sciences). Purified murine antibodies were flowed over the chip surface and captured by anti-murine IgG antibody. […] The equilibrium dissociation constant (KD) was calculated as the ratio koff/kₒₙ.
On the technique in general: SPR reads the build-up and loss of mass on a sensor chip optically.

For assay [1], the target named is T2, chimeric construct (CHIM) (human).
T2 construct: CEACAM6 AA 1-273 joined to the membrane-peripheral region containing domain B3 of CEA (AA 596-687), C-terminal 6xHis; also called chimeric CEA
T2 chain: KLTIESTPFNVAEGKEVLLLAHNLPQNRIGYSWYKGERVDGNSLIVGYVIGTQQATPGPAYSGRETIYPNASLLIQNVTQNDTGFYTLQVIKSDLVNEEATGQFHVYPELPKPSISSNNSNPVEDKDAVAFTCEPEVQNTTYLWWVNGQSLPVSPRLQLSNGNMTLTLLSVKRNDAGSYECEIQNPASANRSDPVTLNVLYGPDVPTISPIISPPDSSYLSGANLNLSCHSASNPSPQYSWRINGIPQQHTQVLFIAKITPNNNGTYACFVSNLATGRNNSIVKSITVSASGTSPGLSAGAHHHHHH
The assay is described as above. Here is the method:
as §1

For the next assay, the target named is T3, CEA (Homo sapiens, UniProt P06731).
T3 sequence (P06731 35-676): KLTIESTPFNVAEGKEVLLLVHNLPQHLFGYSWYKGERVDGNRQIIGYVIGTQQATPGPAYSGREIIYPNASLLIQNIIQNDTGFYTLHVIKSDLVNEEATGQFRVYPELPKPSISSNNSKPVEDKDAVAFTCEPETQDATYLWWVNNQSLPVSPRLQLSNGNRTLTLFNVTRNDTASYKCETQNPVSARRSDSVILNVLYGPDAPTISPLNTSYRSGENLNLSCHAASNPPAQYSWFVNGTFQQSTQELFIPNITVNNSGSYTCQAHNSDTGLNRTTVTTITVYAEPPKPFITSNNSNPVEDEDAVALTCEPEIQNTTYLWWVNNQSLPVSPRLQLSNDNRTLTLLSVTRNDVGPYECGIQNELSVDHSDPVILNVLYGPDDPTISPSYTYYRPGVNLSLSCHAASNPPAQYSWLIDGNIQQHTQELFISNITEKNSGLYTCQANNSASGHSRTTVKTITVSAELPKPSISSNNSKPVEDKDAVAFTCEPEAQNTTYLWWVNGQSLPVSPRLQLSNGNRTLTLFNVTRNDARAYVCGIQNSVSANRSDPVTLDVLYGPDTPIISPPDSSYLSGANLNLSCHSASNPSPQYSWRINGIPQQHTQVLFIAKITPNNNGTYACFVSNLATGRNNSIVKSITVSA
Briefly: Binding of humanized and PTM-engineered BGA7592 variants compared to BGA7592-1. From the text:
Using BGA7592-1, an additional number of single or multiple amino acid changes were made, converting the human residues in framework regions of VH and VL to corresponding murine germline residues, which include V68A, R72A and V79A in VH and V43S in VL, respectively. This resulted BGA7592-2 (V68A, R72A in VH), BGA7592-3 (V79A in VH), BGA7592-4 (V68A, R72A, V79A in VH), BGA7592-5 (V43S in VL), BGA7592-6 (V68A, R72A in VH, and V43S in VL), BGA7592-7 (V79A in VH, V43S in VL) and BGA7592-8 (V68A, R72A, V79A, in VH and V43S in VL). All antibodies which contained modifications had similar binding activities to BGA7592-1, and none of the changes abolished binding.
In order to remove post-translational modification (PTM) sites, further engineering was made by introducing mutations in CDRs and framework regions based on the BGA75921 sequence, which include N52T, N54Q, N59S, N102G, N104Q and S61A amino acid changes in the VH region. […] While maintaining specificity, amino acid compositions and expression levels were also considered. All humanization mutations were made using primers containing mutations at specific positions and a site directed mutagenesis kit (Cat. FM 111-02, TransGen, Beijing, China). The desired mutations were verified by sequence analysis.

B1: BGA7592 (antibody, V domains shown)
VH: QVQLQQSGAELAKSGASVKMSCKASGYIFTSYWLHWVKQRPGQGLEWIGYINPNTGYTNYSQKFKDKATLTADKSSSTAYMQLSSLTSEDSAVYYCAREYGNYNYPLDYWGQGTSVTVSS
VL: DIQMTQSPASLSASVGETVTITCRASENIYGYLAWYQQKQGKSPQLLVFNAKNLVEGVPSRFSGSGSGTQFSLKINSLQPEDFGSYYCQHHYGTPYTFGGGTKLEIK
notes: Murine monoclonal antibody purified from hybridoma supernatant; also called murine anti-CEA antibody BGA7592
As to B1, the Kd (commonly the free concentration of one partner at which half of the binding sites on the other are occupied at equilibrium, for simple one-to-one binding) in the assay with CEA variant (CEA-v) amounted to 150 nM; in assay [1], 120 nM.

B2: BGA7592-1F: "BGA7592-1F (N54Q, N59S, S61 A (VH))"; humanized, "no glycosylation sites but had a high expression level" (antibody, V domains shown)
VH: QVQLVQSGAEVKKPGASVKVSCKASGYIFTSYWLHWVRQAPGQGLEWIGYINPQTGYTSYAQKFQGRVTMTRDTSTSTVYMELSSLRSEDTAVYYCAREYGNYNYPLDYWGQGTLVTVSS
VL: DIQMTQSPSSLSASVGDRVTITCRASENIYGYLAWYQQKPGKVPKLLIYNAKNLVEGVPSRFSGSGSGTDFTLTISSLQPEDVATYYCQHHYGTPYTFGQGTKVEIK
Take B2: in the assay with CEA, the “binding affinities compared to BGA7592-1” value is reported as “significantly reduced binding affinities”.

(Values after patent US20250115677A1, “Anti-CEA Antibody Drug Conjugates and Methods of Use” (BeiGene Switzerland GmbH, priority 2022, published 2025).)
